This note sets out measurements from article PMC5222517.

A value given as a limit tells only on which side of the number the result lay.

The target in test [1] is HIV-1 Env (HXB2 strain) homotrimer with N656D in gp41 (HIV-1 (HXB2 strain)).
The target in test [2] is HIV-1 Env (HXB2 strain) homotrimer with Q552R/N637K in gp41 (HIV-1 (HXB2 strain)).
In test [3] the target is HIV-1 Env (HXB2 strain) homotrimer with V549A in gp41 (HIV-1 (HXB2 strain)).
For test [4], the target named is HIV-1 Env (HXB2 strain) homotrimer with L544S in gp41 (HIV-1 (HXB2 strain)).

For the substance “5-Helix, mutant version with L556A/V570A in all three N-HR segments (from UniProt P04578 543-582; P04578 625-661; P04578 543-582; P04578 625-661; P04578 543-582) (designed binder)”, in test [1], the fold resistance to 5H (LAVA) in inhibition of infection by pseudotyped HIV-1, N656D against wild type Env (HXB2) homotrimers was more than 100 fold.
As to “C-peptide C37-KYI (from UniProt P04578 625-661)”, in test [2], the IC50.1 (high potency phase, fraction f = 0.31) of C37-KYI inhibition of infection by pseudotyped HIV-1, two-site inhibition model (HOS-CXCR4+ cells) was found to be 8 nM and the IC50.2 (low potency phase, fraction 1 - f) of C37-KYI inhibition of infection by pseudotyped HIV-1, two-site inhibition model (HOS-CXCR4+ cells) came out at 180 nM.
On to C-peptide T20, for which the fold resistance to T20 in inhibition of infection by pseudotyped HIV-1, V549A against wild type Env (HXB2) homotrimers (U87.CD4.CXCR4 cells) in test [3] was 50 fold. The fold resistance to T20 in inhibition of infection by pseudotyped HIV-1, L544S against wild type Env (HXB2) homotrimers (U87.CD4.CXCR4 cells) in test [4] came out at 30 fold.
